Blank lines part the entries; values can stand above or below the substance they belong to.
Columns and labels:
[1] = target: RP215 monoclonal antibody; assay: ELISA, RP215 coated in wells, goat antibody as detector; row normalised to RP215
[2] = target: humanized RP215; assay: ELISA, hRP215 coated in wells, goat antibody as detector; row normalised to RP215
[3] = target: human IgG (human); assay: ELISA, human IgG coated in wells, goat antibody as detector; row normalised to RP215
[4] = target: chimeric RP215 mAb; assay: ELISA, chRP215 coated in wells, goat antibody as detector; row normalised to RP215
[5] = target: CA215 (human); assay: sandwich EIA: antibody coated at 5 µg/ml, OC-3-VGH shed medium, HRP-labeled RP215 as detector; no human IgG; relative to RP215
[6] = target: CA215 (human); assay: sandwich EIA: antibody coated at 5 µg/ml, OC-3-VGH shed medium, HRP-labeled RP215 as detector; with 10 µg/ml human IgG; relative to RP215
[7] = target: CA215 (human); assay: sandwich EIA: antibody coated at 5 µg/ml, OC-3-VGH shed medium, HRP-labeled RP215 as detector; with 10 µg/ml human IgG
[8] = target: CA215 (human); assay: sandwich EIA: antibody coated at 5 µg/ml, OC-3-VGH shed medium, HRP-labeled RP215 as detector; no human IgG
[9] = target: CA215 (human); assay: direct binding EIA on OC-3-VGH cell-coated wells, without NaIO4 treatment
[10] = target: CA215 (human); assay: two-step ELISA on OC-3-VGH cancer cells, goat anti-mouse IgG-ALP; OD over that of normal mouse IgG at the same concentration
[11] = target: CA215 on NaIO4-treated OC-3-VGH cancer cells (human); assay: direct binding EIA on OC-3-VGH cell-coated wells, with NaIO4 treatment

RP215 monoclonal antibody, sequence (VH, as listed by the source, chain 1 of 2): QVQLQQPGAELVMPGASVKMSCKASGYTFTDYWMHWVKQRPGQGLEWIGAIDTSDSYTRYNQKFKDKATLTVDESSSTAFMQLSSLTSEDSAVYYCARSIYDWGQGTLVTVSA
RP215 monoclonal antibody, sequence (VL, as listed by the source, chain 2 of 2): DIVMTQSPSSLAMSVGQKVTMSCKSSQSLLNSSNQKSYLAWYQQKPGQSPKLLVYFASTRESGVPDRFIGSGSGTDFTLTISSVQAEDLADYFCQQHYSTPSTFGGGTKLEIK
chimeric RP215 mAb, sequence (VH, as listed by the source, chain 1 of 2): as the sequence (VH, as listed by the source, chain 1 of 2) above
chimeric RP215 mAb, sequence (VL, as listed by the source, chain 2 of 2): as the sequence (VL, as listed by the source, chain 2 of 2) above

Relative Intensity [1]: 100%
Relative Intensity [2]: 5%
Relative Intensity [3]: 3%
Relative Intensity [4]: 7%
Substance: goat anti-mouse IgG (antibody)

Relative Signal Intensity in Sandwich EIA [5]: 14.5%
Relative Signal Intensity in Sandwich EIA [6]: 15.4%
Substance: chimeric RP215 mAb (antibody)

Relative Signal Intensity in Sandwich EIA [7]: 100%
Relative Signal Intensity in Sandwich EIA [8]: 100%
Optical Density at 450 nm [9]: 2.15
percent maximum binding [9]: 100%
ODs405/ODn405 [10]: 11.6
Optical Density at 450 nm [11]: 0.797
percent maximum binding [11]: 37%
Substance: RP215 monoclonal antibody

From patent US20120177636A1
